Results reported in patent US20230012273A1 (Boehringer Ingelheim, published 2023).
Positions count from the first letter of the chain named. One block for each binder: values may come before it.

Assays:
[1] = target: T1, full-length cynomolgus SIRPα (XP_015313155) on CHO cells, clone P3HD10 (cynomolgus monkey, UniProt A0A2K5VYQ9 31-507); experiment: flow cytometry, CHO cells
T1 construct: whole, on cells; also called XP_015313155 Clone P3HD10
T1 sequence: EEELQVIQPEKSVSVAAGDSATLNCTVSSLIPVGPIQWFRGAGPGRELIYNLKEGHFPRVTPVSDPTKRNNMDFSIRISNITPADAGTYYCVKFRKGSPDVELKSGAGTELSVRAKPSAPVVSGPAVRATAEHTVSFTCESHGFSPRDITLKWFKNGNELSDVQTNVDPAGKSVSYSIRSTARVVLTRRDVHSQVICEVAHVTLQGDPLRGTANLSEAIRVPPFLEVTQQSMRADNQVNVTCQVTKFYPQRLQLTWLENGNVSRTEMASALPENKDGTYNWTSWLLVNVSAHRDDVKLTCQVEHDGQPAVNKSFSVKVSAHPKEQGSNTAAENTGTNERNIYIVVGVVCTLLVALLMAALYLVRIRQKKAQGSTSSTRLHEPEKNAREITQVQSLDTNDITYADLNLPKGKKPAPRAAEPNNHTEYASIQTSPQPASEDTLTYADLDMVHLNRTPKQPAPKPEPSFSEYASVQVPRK
Description: (§1) Antibody binding to cells expressing cynomolgus (cyno) SIRPα was evaluated by flow cytometry. CHO-K1 cells expressing full-length cyno SIRPα; derived from protein sequence accession numbers (A) EGM-02252; (B) XP_015313155; or (C) NP_001271679, are blocked with donkey IgG and incubated on ice with increasing concentrations of antibodies for 60 minutes, washed and stained with AF647-conjugated donkey F(ab′)₂ anti-human IgG secondary reagent. Cells are washed, fixed, and analyzed by flow cytometry. Median fluorescent intensity is determined and used as a measure of antibody binding.

[2] = target: T2, full-length human SIRPβ1 D→H on Expi-CHO cells (human, UniProt O00241 30-398); experiment: flow cytometry, Expi-CHO cells
T2 construct: the entry already carries the change (PDDV to PDHV)
Description: These cells are blocked with donkey IgG and incubated on ice with increasing concentrations of antibodies for 60 minutes, washed and stained with AF647-conjugated donkey F(ab′)₂ anti-human IgG antibodies. Stained cells are washed, fixed, and analyzed by flow cytometry. Median fluorescent intensity is determined and used as a measure of antibody binding.

[3] = target: T3, full-length human SIRPγ (NP_061026.2) on cells (human, UniProt Q9P1W8 29-387); experiment: flow cytometry, Expi-CHO cells
T3 construct: also called CHO-hSIRPγ; γ WT
Procedure, shortened: (§2)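 Expi-CHO cells lentivirally transduced with wild-type or point-mutant full-length human SIRPγ, sorted to matched expression, donkey IgG-blocked, then incubated with increasing antibody concentrations 60 min on ice. Detection with AF647 donkey F(ab′)₂ anti-human IgG; fixed cells read by flow cytometry, median fluorescence intensity as binding.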

[4] = target: T4, full-length human SIRPγ E→D on Expi-CHO cells (human, UniProt Q9P1W8 29-387); experiment: flow cytometry, Expi-CHO cells
T4 construct: the entry already carries the change (PENV to PDNV)
Procedure, shortened: as §2

[5] = target: T3, full-length human SIRPγ (NP_061026.2) …; experiment: flow cytometry, primary CD3+ T cells
Description: Antibody binding to primary human T cells expressing endogenous SIRPγ is evaluated by flow cytometry. Human peripheral blood mononuclear cells (PBMCs) are blocked with donkey IgG and incubated on ice with increasing concentrations of antibody for 60 minutes, washed and stained with AF647-conjugated donkey F(ab′)₂ anti-human IgG secondary reagent. […] Cells are washed, fixed, and analyzed by flow cytometry. Median fluorescent intensity of CD3+ gated population is determined and used as a measure of antibody binding.

[6] = target: T5, full-length cyno SIRPα (XP_015313155) on CHO-K1 cells, clone P3HD10 (cynomolgus monkey); experiment: flow cytometry, CHO-K1 cells
T5 chain: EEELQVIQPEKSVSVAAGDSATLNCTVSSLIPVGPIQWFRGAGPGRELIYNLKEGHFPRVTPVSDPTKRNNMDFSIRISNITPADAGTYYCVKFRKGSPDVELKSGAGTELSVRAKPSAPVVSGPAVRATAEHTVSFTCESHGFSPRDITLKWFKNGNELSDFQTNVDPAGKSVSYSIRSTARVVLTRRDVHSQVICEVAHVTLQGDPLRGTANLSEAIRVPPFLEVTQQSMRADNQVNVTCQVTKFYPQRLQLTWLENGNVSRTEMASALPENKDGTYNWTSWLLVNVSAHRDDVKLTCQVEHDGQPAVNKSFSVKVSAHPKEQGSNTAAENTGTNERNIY
Description: as §1

[7] = target: T6, full-length cyno SIRPα (NP_001271679) on CHO-K1 cells, clone HC6 (cynomolgus monkey, UniProt A0A2K5VYQ9); experiment: flow cytometry, CHO-K1 cells
T6 construct: whole, on cells
T6 sequence: T5 chain with P62A, F163V, V185L
Description: as §1

[8] = target: T7, full-length human SIRPγ (NP_061026.2) on cells (human, UniProt Q9P1W8 29-387); experiment: flow cytometry, primary human CD3+ T cells
T7 construct: on CHO and Expi-CHO cells; endogenous on primary human CD3+ T cells; also called γ WT
Procedure, shortened: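 Binding was read as median fluorescence intensity on the CD3+ gate after titrated antibody was applied to donkey-IgG-blocked human PBMCs. Incubation was 60 min on ice, followed by staining with an AF647-labelled anti-human IgG F(ab′)₂ secondary and fixation before flow analysis.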

[9] = target: T8, full-length human SIRPαV2 (CAA71403.1) on cells (human, UniProt P78324 31-504); experiment: flow cytometry, competition with CD47 tetramer, CHO-K1 cells; * inhibition plateaus at <100%
T8 construct: one molecule for CHO-K1 and Expi-CHO transfectants (CAA71403.1) and for endogenous V2 on THP-1 cells and on CD14+ monocytes of V2/V2 donors; also called CHO-hSIRPαV2; αV2 WT
Description: Cells are washed, fixed, and analyzed by flow cytometry. Median fluorescent intensity is determined and used as a measure of CD47 binding.

EC50 [1]: 0.5 nM
EC50 [2]: 0.01 nM
EC50 [3]: 0.113 nM
EC50 [4]: 0.3 nM
EC50 [5]: 0.03 nM
B1: Anti-SIRPα antibody KWAR23 (antibody, V domains shown)
VH: EVQLQQSGAELVKPGASVKLSCTASGFNIKDYYIHWVQQRTEQGLEWIGRIDPEDGETKYAPKFQDKATITADTSSNTAYLHLSSLTSEDTAVYYCARWGAYWGQGTLVTVSS
VL: QIVLTQSPAIMSASPGEKVTLTCSASSSVSSSYLYWYQQKPGSSPKLWIYSTSNLASGVPARFSGSGSGTSYSLTISSMEAEDAASYFCHQWSSYPRTFGAGTKLELK

fold weaker EC50 than on clone H3A9 [6]: ≤ 5 fold
fold weaker EC50 than on clone H3A9 [7]: ≤ 5 fold
B2: Antibody A (antibody, human IgG1, kappa, L234A L235A)
heavy: not shown
light: DIQMTQSPSSLSASVGDRVTITCRASQDINNYLAWFQQKPGKAPKSLIYTASSLHSGVPSKFSGSGSGTDFTLTISSLQPEDFATYYCQQYVSYPYTFGQGTKLEIKRTVAAPSVFIFPPSDEQLKSGTASVVCLLNNFYPREAKVQWKVDNALQSGNSQESVTEQDSKDSTYSLSSTLTLSKADYEKHKVYACEVTHQGLSSPVTKSFNRGEC

fold weaker EC50 than on clone H3A9 [6]: ≤ 5 fold
fold weaker EC50 than on clone H3A9 [7]: ≤ 5 fold
binding result [8]: no binding
B3: Antibody A10 (antibody, human IgG1, kappa, L234A L235A)
heavy: not shown
light: B2 light

IC50 [9]: 0.7 nM
B4: Antibody E (antibody, human IgG1, kappa, L234A L235A)
heavy: not shown
light: DIVMTQSPLSLPVTPGEPASISCKSSQSLLYSNGYNYLDWYLQRPGQSPQLLIYLGSNRASGVPDRFSGSGSGTDFTLKISRVEAEDVGVFYCMQALQTPLTFGGGTKVEIKRTVAAPSVFIFPPSDEQLKSGTASVVCLLNNFYPREAKVQWKVDNALQSGNSQESVTEQDSKDSTYSLSSTLTLSKADYEKHKVYACEVTHQGLSSPVTKSFNRGEC
